This note sets out measurements from patent US20230357420A1 (VILLARIS THERAPEUTICS, published 2023).

One test addresses T1, Human neudesin protein (human, UniProt Q9UMX5 32-172).
T1 construct: also called NENF
The test can be described thus: BIACORE SPR, Fab at 62.5, 125, 250, 500 and 1000 nM on human neudesin protein; Rmax.

Test [1] addresses T2, Human CD122 His tagged (human, UniProt P14784 27-240).
T2 construct: also called hCD122; monomeric antigen; not shown: His tag
T2 sequence: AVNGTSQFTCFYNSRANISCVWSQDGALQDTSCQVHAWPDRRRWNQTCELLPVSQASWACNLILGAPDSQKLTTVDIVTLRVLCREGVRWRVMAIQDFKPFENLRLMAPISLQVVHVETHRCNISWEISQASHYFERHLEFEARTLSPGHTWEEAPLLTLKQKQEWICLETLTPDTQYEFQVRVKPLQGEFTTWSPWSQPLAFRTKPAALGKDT
The test can be described thus: Biacore, Fab affinity and kinetics on hCD122.

A further test has as its target T3, Human CILP2 protein (human, UniProt Q8IUL8 21-1156, limits assumed).
T3 construct: also called cartilage intermediate layer protein 2
T3 sequence (looked up): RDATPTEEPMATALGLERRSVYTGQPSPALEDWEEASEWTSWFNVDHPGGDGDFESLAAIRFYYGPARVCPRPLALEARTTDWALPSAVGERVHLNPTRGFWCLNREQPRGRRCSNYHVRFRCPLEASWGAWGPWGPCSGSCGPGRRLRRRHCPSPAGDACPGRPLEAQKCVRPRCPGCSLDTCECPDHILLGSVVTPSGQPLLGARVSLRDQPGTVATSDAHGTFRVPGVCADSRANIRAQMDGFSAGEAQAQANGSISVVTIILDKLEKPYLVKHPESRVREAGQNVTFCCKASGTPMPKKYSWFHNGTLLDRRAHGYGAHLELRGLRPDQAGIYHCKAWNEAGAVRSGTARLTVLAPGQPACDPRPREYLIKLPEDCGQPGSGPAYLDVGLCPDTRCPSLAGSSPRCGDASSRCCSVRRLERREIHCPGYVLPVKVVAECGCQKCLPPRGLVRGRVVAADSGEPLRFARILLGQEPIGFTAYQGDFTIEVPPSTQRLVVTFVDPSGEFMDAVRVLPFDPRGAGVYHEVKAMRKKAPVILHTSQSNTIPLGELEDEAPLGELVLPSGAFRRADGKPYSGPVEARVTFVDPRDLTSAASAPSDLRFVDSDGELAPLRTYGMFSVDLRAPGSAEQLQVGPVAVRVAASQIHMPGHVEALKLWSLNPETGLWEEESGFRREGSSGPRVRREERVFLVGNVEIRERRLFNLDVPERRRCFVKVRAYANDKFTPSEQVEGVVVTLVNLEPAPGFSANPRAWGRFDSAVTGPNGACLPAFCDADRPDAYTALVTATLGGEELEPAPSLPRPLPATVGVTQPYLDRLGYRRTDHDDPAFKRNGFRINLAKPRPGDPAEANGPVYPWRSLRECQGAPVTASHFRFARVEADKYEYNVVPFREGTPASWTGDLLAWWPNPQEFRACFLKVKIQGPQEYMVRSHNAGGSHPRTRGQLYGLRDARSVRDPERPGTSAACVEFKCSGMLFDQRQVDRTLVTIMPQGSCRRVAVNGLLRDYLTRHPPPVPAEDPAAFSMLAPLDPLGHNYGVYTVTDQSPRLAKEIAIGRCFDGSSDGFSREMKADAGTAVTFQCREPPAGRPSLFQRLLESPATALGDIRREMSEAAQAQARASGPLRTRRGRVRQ
The test can be described thus: BIACORE SPR, Fab at 62.5, 125, 250, 500 and 1000 nM on human CILP2 protein; Rmax.

The target in a further test is T4, Rhesus CD122 His tag (rhesus monkey, UniProt Q38J85 27-240 (cynomolgus entry)).
T4 construct: also called rhCD122; cynomolgus and/or rhesus monkey CD122 His tag; not shown: His tag
T4 sequence: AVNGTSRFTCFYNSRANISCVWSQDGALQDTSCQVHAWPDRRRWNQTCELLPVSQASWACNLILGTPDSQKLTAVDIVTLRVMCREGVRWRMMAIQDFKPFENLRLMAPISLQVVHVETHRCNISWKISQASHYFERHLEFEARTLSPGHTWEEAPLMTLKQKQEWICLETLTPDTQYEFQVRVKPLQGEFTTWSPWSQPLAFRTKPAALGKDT
The test can be described thus: Biacore SPR, Fab.

Test [2] deals with T2, Human CD122 His tagged. The test can be described thus: Biacore SPR, Fab.

T1 sequence (Q9UMX5 32-172 limits assumed): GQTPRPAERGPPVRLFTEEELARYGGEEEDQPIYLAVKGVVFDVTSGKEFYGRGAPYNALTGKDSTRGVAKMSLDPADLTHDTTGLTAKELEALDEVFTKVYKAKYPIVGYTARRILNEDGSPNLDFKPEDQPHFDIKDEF

B1: FAB18 (Fab, V domains shown)
VH: EVQLLESGGGLVQPGGSLRLSCAASGFSVTSYGVHWIRQAPGKGLEWLGVIWSGGSTDYNAAFISRLTISKDNSKNTVYFQMNSLRAEDTAVYYCARAGDYNYDGFAYWGQGTLVTVSS
VL: DIQMTQSPSSLSASVGDRVTITCQASSSVSFMYWYQQRPGKAPRLLIYDTSNLASGVPSRFSGSGSGTSYTFTISSLQPEDIATYYCQQWSTYPLTFGQGTKVEIK
notes: 06F11-V optimization variant; also called Fab version of MAB18
Regarding B1, the binding result in the test with Human neudesin protein and with Human CILP2 protein was “no binding (tested: 1000 nM)” each time. Besides, the dissociation constant Kd in the test with Human CD122 His tagged [1] was determined as 11.5 nM; with Rhesus CD122 His tag it was 8.55 nM; with Human CD122 His tagged [2], 11.5 nM. For the same molecule, the koff with Human CD122 His tagged [1] is 0.0039 s⁻¹. Also, the kon with Human CD122 His tagged [1] amounted to 340000 M⁻¹ s⁻¹.

B2: FAB16 (Fab, V domains shown)
VH: EVQLLESGGGLVQPGGSLRLSCAASGFSVTSYGVHWIRQAPGKGLEWLGVIWSGGSTDYNAAFISRLTISKDNSKNTVYFQMNSLRAEDTAVYYCARAGDYNYDGFAYWGQGTLVTVSS
VL: DIQMTQSPSSLSASVGDRVTITCQASSSVSFMYWYQQRPGKAPRLLIYDTSNLASGVPSRFSGSGSGTSYTFTISSLQPEDIATYYCQQWDTYPLTFGGGTKVEIK
notes: 06F11-V optimization variant
As for B2, the Kd with Rhesus CD122 His tag was 5.04 nM; in the test with Human CD122 His tagged [2], 8.56 nM.

B3: FAB08 (Fab, V domains shown)
VH: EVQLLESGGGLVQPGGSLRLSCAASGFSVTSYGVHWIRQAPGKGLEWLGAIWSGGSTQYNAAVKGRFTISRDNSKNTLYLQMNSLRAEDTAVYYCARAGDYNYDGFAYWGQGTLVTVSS
VL: DIQMTQSPSSLSASVGDRVTITCQASQSVSFLYWYQQRPGKAPRLLIYDTSNLASGVPSRFSGSGSGTSYTFTISSLQPEDIATYYCQQWSTYPLTFGQGTKVEIK
notes: 06F11-V optimization variant
Take B3: the values for the Kd in the test with Rhesus CD122 His tag and with Human CD122 His tagged [2] were 30.7 nM and 41.2 nM, respectively.

B4: FAB09 (Fab, V domains shown)
VH: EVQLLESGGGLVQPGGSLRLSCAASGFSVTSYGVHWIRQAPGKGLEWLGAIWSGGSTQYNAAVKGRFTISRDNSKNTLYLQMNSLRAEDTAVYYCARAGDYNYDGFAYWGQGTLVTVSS
VL: DIQMTQSPSSLSASVGDRVTITCQASSSVSFMYWYQQRPGKAPRLLIYDTSNLASGVPSRFSGSGSGTSYTFTISSLQPEDIATYYCQQWSTYPLTFGQGTKVEIK
notes: 06F11-V optimization variant
Turning to B4, the Kd with Rhesus CD122 His tag came out at 36.5 nM; in the test with Human CD122 His tagged [2], 72.5 nM.

B5: FAB01 (Fab, V domains shown)
VH: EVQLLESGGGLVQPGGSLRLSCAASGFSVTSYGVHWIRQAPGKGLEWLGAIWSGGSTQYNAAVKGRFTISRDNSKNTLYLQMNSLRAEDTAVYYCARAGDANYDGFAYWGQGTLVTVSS
VL: DIQMTQSPSSLSASVGDRVTITCQASSSVSFMYWYQQRPGKAPRLLIYDTSNLASGVPSRFSGSGSGTSYTFTISSLQPEDIATYYCQQWDTYPLTFGGGTKVEIK
notes: 06F11-V optimization variant
On to B5, for which the results for the Kd with Rhesus CD122 His tag and in the test with Human CD122 His tagged [2] were 14.4 nM and 33.6 nM, respectively.

B6: FAB13 (Fab, V domains shown)
VH: EVQLLESGGGLVQPGGSLRLSCAASGFSVTSYGVHWIRQAPGKGLEWLGVIWSGGSTDYNAAFISRLTISKDNSKNTVYFQMNSLRAEDTAVYYCARAGDANYDGFAYWGQGTLVTVSS
VL: DIQMTQSPSSLSASVGDRVTITCQASSSVSFMYWYQQRPGKAPRLLIYDTSNLASGVPSRFSGSGSGTSYTFTISSLQPEDIATYYCQQWDTYPLTFGGGTKVEIK
notes: 06F11-V optimization variant
On to B6, for which the dissociation constant (Kd) in the test with Rhesus CD122 His tag was found to be 3.25 nM; with Human CD122 His tagged [2], 5.37 nM.

B7: FAB04 (Fab, V domains shown)
VH: EVQLLESGGGLVQPGGSLRLSCAASGFTVTSYAVHWVRQAPGKGLEWLGVIWSGGSTDYNAAFISRLTISKDNSKNTVYFQMNSLRAEDTAVYYCARAGDANYDGFAYWGQGTLVTVSS
VL: DIQMTQSPSSLSASVGDRVTITCQASSSVSFMYWYQQRPGKAPRLLIYDTSNLASGVPSRFSGSGSGTSYTFTISSLQPEDIATYYCQQWDTYPLTFGGGTKVEIK
notes: 06F11-V optimization variant
As to B7, the values for the Kd in the test with Rhesus CD122 His tag and in the test with Human CD122 His tagged [2] were 9.26 nM and 13.8 nM, respectively.

B8: FAB02 (Fab, V domains shown)
VH: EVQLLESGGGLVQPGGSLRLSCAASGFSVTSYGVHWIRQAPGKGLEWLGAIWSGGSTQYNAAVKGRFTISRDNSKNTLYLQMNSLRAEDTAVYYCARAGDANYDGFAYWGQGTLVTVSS
VL: DIQMTQSPSSLSASVGDRVTITCQASQSVSFLYWYQQRPGKAPRLLIYDTSNLASGVPSRFSGSGSGTSYTFTISSLQPEDIATYYCQQWSTYPLTFGQGTKVEIK
notes: 06F11-V optimization variant
For the molecule B8, the Kd with Rhesus CD122 His tag was found to be 22.5 nM; in the test with Human CD122 His tagged [2], 50.6 nM.

B9: FAB03 (Fab, V domains shown)
VH: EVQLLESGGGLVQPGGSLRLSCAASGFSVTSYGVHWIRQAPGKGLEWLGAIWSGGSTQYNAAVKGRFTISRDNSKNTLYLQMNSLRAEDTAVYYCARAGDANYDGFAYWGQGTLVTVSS
VL: DIQMTQSPSSLSASVGDRVTITCQASSSVSFMYWYQQRPGKAPRLLIYDTSNLASGVPSRFSGSGSGTSYTFTISSLQPEDIATYYCQQWSTYPLTFGQGTKVEIK
notes: 06F11-V optimization variant
With B9, the Kd with Rhesus CD122 His tag stood at 20.6 nM; with Human CD122 His tagged [2], 38.6 nM.

B10: FAB10 (Fab, V domains shown)
VH: EVQLLESGGGLVQPGGSLRLSCAASGFTVTSYAVHWVRQAPGKGLEWLGVIWSGGSTDYNAAFISRLTISKDNSKNTVYFQMNSLRAEDTAVYYCARAGDYNYDGFAYWGQGTLVTVSS
VL: DIQMTQSPSSLSASVGDRVTITCQASSSVSFMYWYQQRPGKAPRLLIYDTSNLASGVPSRFSGSGSGTSYTFTISSLQPEDIATYYCQQWDTYPLTFGGGTKVEIK
notes: 06F11-V optimization variant
Consider B10, for which binding with Rhesus CD122 His tag was put at a Kd of 16.7 nM.

B11: FAB05 (Fab, V domains shown)
VH: EVQLLESGGGLVQPGGSLRLSCAASGFTVTSYAVHWVRQAPGKGLEWLGVIWSGGSTDYNAAFISRLTISKDNSKNTVYFQMNSLRAEDTAVYYCARAGDANYDGFAYWGQGTLVTVSS
VL: DIQMTQSPSSLSASVGDRVTITCQASQSVSFLYWYQQRPGKAPRLLIYDTSNLASGVPSRFSGSGSGTSYTFTISSLQPEDIATYYCQQWSTYPLTFGQGTKVEIK
notes: 06F11-V optimization variant; also called Fab version of MAB05
Regarding B11, the binding result with Human neudesin protein and in the test with Human CILP2 protein was “no binding (tested: 1000 nM)” throughout. Moreover, the Kd with Human CD122 His tagged [1] amounted to 10.2 nM; with Rhesus CD122 His tag it was 8.86 nM; in the test with Human CD122 His tagged [2], 10.2 nM. The same molecule yielded a koff with Human CD122 His tagged [1] of 0.0058 s⁻¹. Besides, in the test with Human CD122 His tagged [1], the kon amounted to 570000 M⁻¹ s⁻¹.

B12: FAB06 (Fab, V domains shown)
VH: EVQLLESGGGLVQPGGSLRLSCAASGFTVTSYAVHWVRQAPGKGLEWLGVIWSGGSTDYNAAFISRLTISKDNSKNTVYFQMNSLRAEDTAVYYCARAGDANYDGFAYWGQGTLVTVSS
VL: DIQMTQSPSSLSASVGDRVTITCQASSSVSFMYWYQQRPGKAPRLLIYDTSNLASGVPSRFSGSGSGTSYTFTISSLQPEDIATYYCQQWSTYPLTFGQGTKVEIK
notes: 06F11-V optimization variant; also called Fab version of MAB06
Consider B12, for which the binding result in the test with Human neudesin protein and in the test with Human CILP2 protein was “no binding (tested: 1000 nM)” each time. Also, the dissociation constant (Kd) with Human CD122 His tagged [1] was determined as 8 nM; with Rhesus CD122 His tag, 9.78 nM; with Human CD122 His tagged [2], 8.04 nM. Further, in the test with Human CD122 His tagged [1], the koff stood at 0.0044 s⁻¹. In the test with Human CD122 His tagged [1], this molecule registered a kon of 540000 M⁻¹ s⁻¹.

B13: FAB11 (Fab, V domains shown)
VH: EVQLLESGGGLVQPGGSLRLSCAASGFTVTSYAVHWVRQAPGKGLEWLGVIWSGGSTDYNAAFISRLTISKDNSKNTVYFQMNSLRAEDTAVYYCARAGDYNYDGFAYWGQGTLVTVSS
VL: DIQMTQSPSSLSASVGDRVTITCQASQSVSFLYWYQQRPGKAPRLLIYDTSNLASGVPSRFSGSGSGTSYTFTISSLQPEDIATYYCQQWSTYPLTFGQGTKVEIK
notes: 06F11-V optimization variant
As to B13, the Kd is 15.9 nM with Rhesus CD122 His tag and 17.7 nM in the test with Human CD122 His tagged [2].

B14: FAB12 (Fab, V domains shown)
VH: EVQLLESGGGLVQPGGSLRLSCAASGFTVTSYAVHWVRQAPGKGLEWLGVIWSGGSTDYNAAFISRLTISKDNSKNTVYFQMNSLRAEDTAVYYCARAGDYNYDGFAYWGQGTLVTVSS
VL: DIQMTQSPSSLSASVGDRVTITCQASSSVSFMYWYQQRPGKAPRLLIYDTSNLASGVPSRFSGSGSGTSYTFTISSLQPEDIATYYCQQWSTYPLTFGQGTKVEIK
notes: 06F11-V optimization variant
On to B14, for which the Kd was 19.5 nM in the test with Rhesus CD122 His tag and 21.8 nM with Human CD122 His tagged [2].

B15: FAB07 (Fab, V domains shown)
VH: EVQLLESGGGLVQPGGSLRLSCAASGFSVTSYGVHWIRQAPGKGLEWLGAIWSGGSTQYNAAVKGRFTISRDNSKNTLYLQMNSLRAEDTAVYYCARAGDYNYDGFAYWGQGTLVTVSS
VL: DIQMTQSPSSLSASVGDRVTITCQASSSVSFMYWYQQRPGKAPRLLIYDTSNLASGVPSRFSGSGSGTSYTFTISSLQPEDIATYYCQQWDTYPLTFGGGTKVEIK
notes: 06F11-V optimization variant
As to B15, the values for the Kd in the test with Rhesus CD122 His tag and with Human CD122 His tagged [2] were 16.3 nM and 30.1 nM, respectively.
